Measured values published in patent US20210032299A1 (Eli Lilly, published 2021).
Changes are numbered by the printed parent chain. Starred links: 1 amine or outer side, 2 acyl side, 3 side chain; linkers in the order of their positions; H or OH if unused. Non-standard residues stand in square brackets, D forms with d. Groups on a side chain read outwards from the residue. No end group written: not given here. *: point of attachment. C20 diacid = O=C(O)CCCCCCCCCCCCCCCCCCC(=O)*; C18 diacid = O=C(O)CCCCCCCCCCCCCCCCC(=O)*; γGlu = O=C(O)[C@H](CCC(=O)[*:2])N[*:1]; 4Pal = N[C@@H](Cc1ccncc1)C(=O)O; AEEA = NCCOCCOCC(=O)O; Aib = CC(C)(N)C(=O)O

B1: Example 15 (peptide)
peptide: Y[dA]EGTFISDYSILLDKK([AEEA-AEEA-γGlu-C20 diacid])HQQDFVNYLLAQGPSSGAPPPS-NH2
modifications: N-terminus assumed
SMILES: CC[C@H](C)[C@H](NC(=O)[C@H](CO)NC(=O)[C@H](Cc1ccc(O)cc1)NC(=O)[C@H](CC(=O)O)NC(=O)[C@H](CO)NC(=O)[C@@H](NC(=O)[C@H](Cc1ccccc1)NC(=O)[C@@H](NC(=O)CNC(=O)[C@H](CCC(=O)O)NC(=O)[C@@H](C)NC(=O)[C@@H](N)Cc1ccc(O)cc1)[C@@H](C)O)[C@@H](C)CC)C(=O)N[C@@H](CC(C)C)C(=O)N[C@@H](CC(C)C)C(=O)N[C@@H](CC(=O)O)C(=O)N[C@@H](CCCCN)C(=O)N[C@@H](CCCCNC(=O)COCCOCCNC(=O)COCCOCCNC(=O)CC[C@H](NC(=O)CCCCCCCCCCCCCCCCCCC(=O)O)C(=O)O)C(=O)N[C@@H](Cc1c[nH]cn1)C(=O)N[C@@H](CCC(N)=O)C(=O)N[C@@H](CCC(N)=O)C(=O)N[C@@H](CC(=O)O)C(=O)N[C@@H](Cc1ccccc1)C(=O)N[C@H](C(=O)N[C@@H](CC(N)=O)C(=O)N[C@@H](Cc1ccc(O)cc1)C(=O)N[C@@H](CC(C)C)C(=O)N[C@@H](CC(C)C)C(=O)N[C@@H](C)C(=O)N[C@@H](CCC(N)=O)C(=O)NCC(=O)N1CCC[C@H]1C(=O)N[C@@H](CO)C(=O)N[C@@H](CO)C(=O)NCC(=O)N[C@@H](C)C(=O)N1CCC[C@H]1C(=O)N1CCC[C@H]1C(=O)N1CCC[C@H]1C(=O)N[C@@H](CO)C(N)=O)C(C)C
B2: Example 16 (peptide)
peptide: YXEGTFISDYSILLDKKAQXDFVEWLLAQGPSSGAPPPS
modifications: D-Ala2; K17((2-[2-(2-Amino-ethoxy)-ethoxy]-acetyl)2-(γ-Glu)-CO-(CH2)16-CO2H); Aib20; C-terminal amide
B3: Example 18 (peptide)
peptide: B2 peptide with E24N, W25X
modifications: D-Ala2; K17((2-[2-(2-Amino-ethoxy)-ethoxy]-acetyl)2-(γ-Glu)-CO-(CH2)16-CO2H); Aib20; 4-Pal25; C-terminal amide
B4: Example 17 (peptide)
peptide: B2 peptide with E24N, A28E
modifications: D-Ala2; K17((2-[2-(2-Amino-ethoxy)-ethoxy]-acetyl)2-(γ-Glu)-CO-(CH2)16-CO2H); Aib20; C-terminal amide
B5: Example 20 (peptide)
peptide: B2 peptide with D21E, E24N
modifications: D-Ala2; K17((2-[2-(2-Amino-ethoxy)-ethoxy]-acetyl)2-(γ-Glu)-CO-(CH2)16-CO2H); Aib20; C-terminal amide
B6: Example 19 (peptide)
peptide: B2 peptide with E24N, Q29G
modifications: D-Ala2; K17((2-[2-(2-Amino-ethoxy)-ethoxy]-acetyl)2-(γ-Glu)-CO-(CH2)16-CO2H); Aib20; C-terminal amide
B7: Example 21 (peptide)
peptide: Y[Aib]EGTFISDYSIALDKK([AEEA-AEEA-γGlu-C18 diacid])HQ[Aib]DFVE[4Pal]LLAGGPSSGAPPPS-NH2
modifications: N-terminus assumed
SMILES: CC[C@H](C)[C@H](NC(=O)[C@H](CO)NC(=O)[C@H](Cc1ccc(O)cc1)NC(=O)[C@H](CC(=O)O)NC(=O)[C@H](CO)NC(=O)[C@@H](NC(=O)[C@H](Cc1ccccc1)NC(=O)[C@@H](NC(=O)CNC(=O)[C@H](CCC(=O)O)NC(=O)C(C)(C)NC(=O)[C@@H](N)Cc1ccc(O)cc1)[C@@H](C)O)[C@@H](C)CC)C(=O)N[C@@H](C)C(=O)N[C@@H](CC(C)C)C(=O)N[C@@H](CC(=O)O)C(=O)N[C@@H](CCCCN)C(=O)N[C@@H](CCCCNC(=O)COCCOCCNC(=O)COCCOCCNC(=O)CC[C@H](NC(=O)CCCCCCCCCCCCCCCCC(=O)O)C(=O)O)C(=O)N[C@@H](Cc1c[nH]cn1)C(=O)N[C@@H](CCC(N)=O)C(=O)NC(C)(C)C(=O)N[C@@H](CC(=O)O)C(=O)N[C@@H](Cc1ccccc1)C(=O)N[C@H](C(=O)N[C@@H](CCC(=O)O)C(=O)N[C@@H](Cc1ccncc1)C(=O)N[C@@H](CC(C)C)C(=O)N[C@@H](CC(C)C)C(=O)N[C@@H](C)C(=O)NCC(=O)NCC(=O)N1CCC[C@H]1C(=O)N[C@@H](CO)C(=O)N[C@@H](CO)C(=O)NCC(=O)N[C@@H](C)C(=O)N1CCC[C@H]1C(=O)N1CCC[C@H]1C(=O)N1CCC[C@H]1C(=O)N[C@@H](CO)C(N)=O)C(C)C
B8: Example 14 (peptide)
peptide: Y[dA]EGTFISDYSILLDKK([AEEA-AEEA-γGlu-C20 diacid])HQQDFVEWLLAQGPSSGAPPPS-NH2
modifications: N-terminus assumed
SMILES: CC[C@H](C)[C@H](NC(=O)[C@H](CO)NC(=O)[C@H](Cc1ccc(O)cc1)NC(=O)[C@H](CC(=O)O)NC(=O)[C@H](CO)NC(=O)[C@@H](NC(=O)[C@H](Cc1ccccc1)NC(=O)[C@@H](NC(=O)CNC(=O)[C@H](CCC(=O)O)NC(=O)[C@@H](C)NC(=O)[C@@H](N)Cc1ccc(O)cc1)[C@@H](C)O)[C@@H](C)CC)C(=O)N[C@@H](CC(C)C)C(=O)N[C@@H](CC(C)C)C(=O)N[C@@H](CC(=O)O)C(=O)N[C@@H](CCCCN)C(=O)N[C@@H](CCCCNC(=O)COCCOCCNC(=O)COCCOCCNC(=O)CC[C@H](NC(=O)CCCCCCCCCCCCCCCCCCC(=O)O)C(=O)O)C(=O)N[C@@H](Cc1c[nH]cn1)C(=O)N[C@@H](CCC(N)=O)C(=O)N[C@@H](CCC(N)=O)C(=O)N[C@@H](CC(=O)O)C(=O)N[C@@H](Cc1ccccc1)C(=O)N[C@H](C(=O)N[C@@H](CCC(=O)O)C(=O)N[C@@H](Cc1c[nH]c2ccccc12)C(=O)N[C@@H](CC(C)C)C(=O)N[C@@H](CC(C)C)C(=O)N[C@@H](C)C(=O)N[C@@H](CCC(N)=O)C(=O)NCC(=O)N1CCC[C@H]1C(=O)N[C@@H](CO)C(=O)N[C@@H](CO)C(=O)NCC(=O)N[C@@H](C)C(=O)N1CCC[C@H]1C(=O)N1CCC[C@H]1C(=O)N1CCC[C@H]1C(=O)N[C@@H](CO)C(N)=O)C(C)C
B9: Example 22 (peptide)
peptide: Y[Aib]EGTFISDYSILLDKK([AEEA-AEEA-γGlu-C18 diacid])HQ[Aib]DFVE[4Pal]LLAGGPSSGAPPPS-NH2
modifications: N-terminus assumed
SMILES: CC[C@H](C)[C@H](NC(=O)[C@H](CO)NC(=O)[C@H](Cc1ccc(O)cc1)NC(=O)[C@H](CC(=O)O)NC(=O)[C@H](CO)NC(=O)[C@@H](NC(=O)[C@H](Cc1ccccc1)NC(=O)[C@@H](NC(=O)CNC(=O)[C@H](CCC(=O)O)NC(=O)C(C)(C)NC(=O)[C@@H](N)Cc1ccc(O)cc1)[C@@H](C)O)[C@@H](C)CC)C(=O)N[C@@H](CC(C)C)C(=O)N[C@@H](CC(C)C)C(=O)N[C@@H](CC(=O)O)C(=O)N[C@@H](CCCCN)C(=O)N[C@@H](CCCCNC(=O)COCCOCCNC(=O)COCCOCCNC(=O)CC[C@H](NC(=O)CCCCCCCCCCCCCCCCC(=O)O)C(=O)O)C(=O)N[C@@H](Cc1c[nH]cn1)C(=O)N[C@@H](CCC(N)=O)C(=O)NC(C)(C)C(=O)N[C@@H](CC(=O)O)C(=O)N[C@@H](Cc1ccccc1)C(=O)N[C@H](C(=O)N[C@@H](CCC(=O)O)C(=O)N[C@@H](Cc1ccncc1)C(=O)N[C@@H](CC(C)C)C(=O)N[C@@H](CC(C)C)C(=O)N[C@@H](C)C(=O)NCC(=O)NCC(=O)N1CCC[C@H]1C(=O)N[C@@H](CO)C(=O)N[C@@H](CO)C(=O)NCC(=O)N[C@@H](C)C(=O)N1CCC[C@H]1C(=O)N1CCC[C@H]1C(=O)N1CCC[C@H]1C(=O)N[C@@H](CO)C(N)=O)C(C)C
B10: Example 13 (peptide)
peptide: Y[dA]EGTFISDYSILLDKK([AEEA-AEEA-γGlu-C20 diacid])HQQEFVNWLLAQGPSSGAPPPS-NH2
modifications: N-terminus assumed
SMILES: CC[C@H](C)[C@H](NC(=O)[C@H](CO)NC(=O)[C@H](Cc1ccc(O)cc1)NC(=O)[C@H](CC(=O)O)NC(=O)[C@H](CO)NC(=O)[C@@H](NC(=O)[C@H](Cc1ccccc1)NC(=O)[C@@H](NC(=O)CNC(=O)[C@H](CCC(=O)O)NC(=O)[C@@H](C)NC(=O)[C@@H](N)Cc1ccc(O)cc1)[C@@H](C)O)[C@@H](C)CC)C(=O)N[C@@H](CC(C)C)C(=O)N[C@@H](CC(C)C)C(=O)N[C@@H](CC(=O)O)C(=O)N[C@@H](CCCCN)C(=O)N[C@@H](CCCCNC(=O)COCCOCCNC(=O)COCCOCCNC(=O)CC[C@H](NC(=O)CCCCCCCCCCCCCCCCCCC(=O)O)C(=O)O)C(=O)N[C@@H](Cc1c[nH]cn1)C(=O)N[C@@H](CCC(N)=O)C(=O)N[C@@H](CCC(N)=O)C(=O)N[C@@H](CCC(=O)O)C(=O)N[C@@H](Cc1ccccc1)C(=O)N[C@H](C(=O)N[C@@H](CC(N)=O)C(=O)N[C@@H](Cc1c[nH]c2ccccc12)C(=O)N[C@@H](CC(C)C)C(=O)N[C@@H](CC(C)C)C(=O)N[C@@H](C)C(=O)N[C@@H](CCC(N)=O)C(=O)NCC(=O)N1CCC[C@H]1C(=O)N[C@@H](CO)C(=O)N[C@@H](CO)C(=O)NCC(=O)N[C@@H](C)C(=O)N1CCC[C@H]1C(=O)N1CCC[C@H]1C(=O)N1CCC[C@H]1C(=O)N[C@@H](CO)C(N)=O)C(C)C

How the values were obtained:
Assay in all cases: cell-based or functional assay
[1] = biological target: T1, human glucose-dependent insulinotropic peptide receptor (human, UniProt P48546 22-466)
T1 sequence (looked up): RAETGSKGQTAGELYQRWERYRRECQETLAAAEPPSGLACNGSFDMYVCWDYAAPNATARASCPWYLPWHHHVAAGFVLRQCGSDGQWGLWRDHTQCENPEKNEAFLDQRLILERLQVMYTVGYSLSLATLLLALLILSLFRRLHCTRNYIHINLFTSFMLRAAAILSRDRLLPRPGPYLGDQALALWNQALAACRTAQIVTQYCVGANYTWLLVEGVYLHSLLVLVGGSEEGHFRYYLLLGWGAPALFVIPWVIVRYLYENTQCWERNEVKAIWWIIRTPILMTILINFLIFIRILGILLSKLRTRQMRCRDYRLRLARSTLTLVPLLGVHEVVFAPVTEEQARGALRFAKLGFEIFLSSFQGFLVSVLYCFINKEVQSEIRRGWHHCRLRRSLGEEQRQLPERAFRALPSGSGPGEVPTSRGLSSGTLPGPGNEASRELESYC

human GLP-1 receptor = human GLP-1 receptor (human, UniProt P43220 24-463)
human glucagon receptor = human glucagon receptor (human, UniProt P47871 26-477)
human glucagon receptor, sequence (P47871 26-477): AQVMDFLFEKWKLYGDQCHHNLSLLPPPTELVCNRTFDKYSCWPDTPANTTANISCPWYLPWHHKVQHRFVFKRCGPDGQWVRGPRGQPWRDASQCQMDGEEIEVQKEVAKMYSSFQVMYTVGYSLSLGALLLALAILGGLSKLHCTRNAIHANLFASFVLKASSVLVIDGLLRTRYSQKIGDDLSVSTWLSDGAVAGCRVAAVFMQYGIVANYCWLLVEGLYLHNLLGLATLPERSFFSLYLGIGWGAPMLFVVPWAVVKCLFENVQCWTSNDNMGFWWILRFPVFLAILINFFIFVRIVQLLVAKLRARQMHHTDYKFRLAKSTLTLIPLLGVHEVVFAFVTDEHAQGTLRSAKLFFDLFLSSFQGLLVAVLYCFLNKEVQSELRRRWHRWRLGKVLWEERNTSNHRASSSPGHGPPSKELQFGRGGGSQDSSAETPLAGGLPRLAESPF

Binder | hGIPR cAMP Rel EC50 [1] [nM] | hGLP1R cAMP Rel EC50 (human GLP-1 receptor) [nM] | hGcgR cAMP Rel EC50 (human glucagon receptor) [nM]
B1 | 0.282 | > 100 | > 5000
B2 | 0.00937 | > 5000 | > 5000
B3 | 0.00656 | > 5000 | > 5000
B4 | 0.0135 | > 5000 | > 5000
B5 | 0.00933 | > 5000 | > 5000
B6 | 0.00992 | > 5000 | > 5000
B7 | 0.291 | > 5000 | > 5000
B8 | 0.34 | > 100 | > 5000
B9 | 0.0345 | > 5000 | 1250
B10 | 0.129 | > 100 | > 5000
